In test [1] the target is type-L calcium channels, verapamil site (rat cerebral cortex homogenates) (rat). Kind of test: specific binding of 0.5 nM (3H)(-)D 888 left with the MIXTURE of 1.0% Argireline and 1 x 10^-4 M magnesium gluconate; rat cerebral cortex membranes; replicate 1.
The target is the same in test [2]. The experiment in a line: inhibition of specific binding of 0.5 nM (3H)(-)D 888 by 1.0% Argireline; rat cerebral cortex membranes, scintillation counting.
The target is the same in test [3]. Kind of test: inhibition of specific binding of 0.5 nM (3H)(-)D 888 by the MIXTURE of 1.0% Argireline and 1 x 10^-4 M magnesium gluconate; rat cerebral cortex membranes.
Test [4] has the same target. Kind of test: specific binding of 0.5 nM (3H)(-)D 888 left with 1.0% Argireline; rat cerebral cortex membranes, scintillation counting.
Test [5] has the same target. The experiment in a line: specific binding of 0.5 nM (3H)(-)D 888 left with 1.0% Argireline; rat cerebral cortex membranes, scintillation counting; replicate 3.
For test [6] the target is unchanged. The experiment in a line: specific binding of 0.5 nM (3H)(-)D 888 left with the MIXTURE of 1.0% Argireline and 1 x 10^-4 M magnesium gluconate; rat cerebral cortex membranes; replicate 3.
Test [7] has the same target. Kind of test: inhibition of specific binding of (3H)(-)D 888 by 5% Argireline; rat cerebral cortex membranes.
Test [8] shares this target. Kind of test: specific binding of 0.5 nM (3H)(-)D 888 left with the MIXTURE of 1.0% Argireline and 1 x 10^-4 M magnesium gluconate; rat cerebral cortex membranes.
For test [9] the target is unchanged. The experiment in a line: specific binding of 0.5 nM (3H)(-)D 888 left with 1.0% Argireline; rat cerebral cortex membranes, scintillation counting; replicate 2.
Test [10] has the same target. Kind of test: specific binding of 0.5 nM (3H)(-)D 888 left with the MIXTURE of 1.0% Argireline and 1 x 10^-4 M magnesium gluconate; rat cerebral cortex membranes; replicate 2.
The target is the same in test [11]. The experiment in a line: inhibition of specific binding of (3H)(-)D 888 by 10% Argireline; rat cerebral cortex membranes.
Test [12] shares this target. Kind of test: specific binding of 0.5 nM (3H)(-)D 888 left with 1.0% Argireline; rat cerebral cortex membranes, scintillation counting; replicate 1.

B1: Argireline (acetyl glutamyl-glutamyl-methionyl-glutaminyl-arginyl-arginylamide hexapeptide, from Lipotec) (peptide)
peptide: Ac-EEMQRR-NH2
As for B1, the % of binding is 81.6% in [1]; 99.9% in test [5]; 85.1% in test [6]; 93.1% in test [9]; 85.3% in test [10]; 95.1% in [12]. Moreover, the Mean % of inhibition is 4% in test [2] and 16% in test [3]. Moreover, the Mean % of binding in [4] is 96.1%; in [8], 84%. Also, the mean percentage of inhibition stood at 36% in test [7] and 52% in [11].

The record behind these values is patent publication US20040147443A1.
